Stoichiometry N data for 2 substances are collected here from paper doi:10.1101/2020.07.19.211243.

“And” between values parts separate entries of the source, which are not always exact repeats. Equal entries are not always repeated. Where two headings read alike, the source gives them in different places.

What all share (test): SDS-PAGE
Test [1] deals with Triops cancriformis (tadpole shrimp) sarcolamban peptide (Triops cancriformis).
Test [2] has as its target Daphnia pulex (water flea) sarcolamban peptide (Daphnia pulex).
Test [3] has the same target. The source holds these as a separate data set.

Substance “Triops cancriformis (tadpole shrimp) sarcolamban peptide” registered a stoichiometry N in test [1] of 2. “Daphnia pulex (water flea) sarcolamban peptide”: the stoichiometry N in test [2] was 3 and 4 and 5; in test [3], 2.

As a reminder, the stoichiometry N is the number of molecules, sites or subunits per partner or assembly.
